Reference: patent US20250345467A1, “DENDRIMER FOR THERAPY AND IMAGING” (priority 2018, published 2025)

Tests used:
[1] = system: spontaneous gliomas (high grade glioma mouse model); experiment: PET-MRI tumour imaging study, glioblastoma; type: in vivo, mice; settings: Zr-89 radiolabelled, approximately 5 MBq; for % ID/g at 40 hrs: 40 hrs post-injection; for % ID/g at 5 days: 5 days post-injection
From the text: The aim of this study was to assess the level of accumulation of example radionuclide-containing dendrimers in mice bearing spontaneous gliomas. This model provides a route to effectively assess the ability to both cross the blood-brain-barrier (BBB) as well as accumulate in tumour tissue.
Gt(ROSA)26So^rtm14(CAG-tdTomato)Hze 20023653 was crossed with Pten^tm2MAK; Rb1^tm2Bm; Trp53^tm1Bm; Tg(GFAP-cre/Esr1*,−lacZ)BSbk^31,44-47 (alleles) and backcrossed six generations to latter mice to generate Gt(ROSA)26Sor^tm14(CAG-tdTomato)Hze; Pten^tm2MAK; Rb1^tm2Bm; Trp53^tm1Bm; Tg(GFAP-cre/Esr1*,−lacZ)BSbk (high grade glioma mouse model; HGG). Mice were maintained on a predominantly FVB/NJ background with contributions from 129/SV and C57Bl6. To induce Cre recombinase and thereby tumor formations, 20 mg/ml Tamoxifen (Sigma-Aldrich) dissolved in corn oil (Sigma-Aldrich) was injected intraperitoneally. Up to 200 mg/kg body weight was administered weekly for 3 consecutive weeks after postnatal day (P) 30 (range P30-44). Animal's health and welfare was monitored up to twice daily and animals were euthanized based on morbidity requirement.
91 μL Zr-89 oxalate in 1 M oxalic acid (Perkin Elmer) was diluted with 78 μL 1 M Na2CO3 to neutralize pH. Dendrimer 1b was dissolved in 0.5 M HEPES (pH 7.5). 33 μL neutralized Zr-89 stock (approximately 15 MBq) was added to the dendrimer (146 μg) to give 100-fold excess of the dendrimer to Zr-89 and labelling was allowed to proceed at room temperature for 1 hour. The sample was then buffer exchanged into phosphate-buffered saline using Zeba Spin Desalting Columns (7 kDa MWCO, Thermo Fisher Scientific). 1 μL sample of the solution was taken and spotted on thin layer chromatography paper (Agilent iTLC-SG Glass microfiber chromatography paper impregnated with silica gel) and run with 50 mM diethylenetriaminepentaacetic acid (DTPA) as the eluent. Control experiments were conducted to monitor the elution behaviour of unbound Zr-89 for quality control. Plates were then imaged on a Bruker In Vivo MS FX Pro imaging system using a radioisotopic phosphor screen. ˜100% chelation of the Zr-89 was observed and so the dendrimer was used directly for the imaging experiments.
Anaesthetized mice, with a cannulated tail vein, were placed in a combined MRI/PET system, comprising a 300 mm bore 7T ClinScan, running Siemens VB17, and removable PET insert containing 3 rings of 16 detector blocks with 15×15 LSO crystals (1.6×1.6×10 mm) per block, at the centre of the magnet bore operating under Siemens Inveon Acquisition Workplace (IAW) (Bruker, Germany). A 23 mm ID mouse head MRI RF coil inside the PET ring was used to acquire mouse head images simultaneously with the PET acquisition.
Mice were injected with approximately 5 MBq of Zr-89 labelled dendrimer 1b and imaged 40 hours and 5 days post-injection. At each imaging point a dose of Gadovist® contrast agent was injected to obtain pre- and post-contrast T1, T2, and dynamic image data. The injection dose at each timepoint was comprised of 50 μl Gadovist® diluted with PBS (1×) to give a total volume of 200 μl. This volume was injected via a catheter inserted into the tail vein in a slow bolus injection. Where collected, dynamic PET data acquisition was performed for 60 min. Prior to injection, fast localizer images and a 3D T1 weighted volumetric interpolated breath-hold examination VIBE sequence was acquired. Dynamic MRI images were acquired with a Gradient echo FLASH sequence, with 3 slices acquired each 2 seconds interval. The PET acquisition and dynamic MRI imaging was started simultaneously, a 2-3 min baseline period acquired and then the solution was injected. Following 15 min of dynamic MRI scanning, the T1 weighted VIBE was repeated, structural T2 weighted spin echo images acquired and a […] T1 weighted VIBE_DIXON sequence acquired to generate a 3D T1 map. […]

[2] = Organ biodistribution, clearance and health monitoring in the prostate cancer xenograft study; type: in vivo, Balb/C nude mice; settings: Zr-89 labelled, mice bearing DU-145 or PC3 xenografts, whole study (9 days)
Protocol: The accumulation of two different dendrimer constructs in two different murine xenograft models of prostate cancer (DU145 and PC3 cell lines) was investigated. The two different constructs were compound 1b and 3 which are pre-conjugated with DFO, which were labelled with 89Zr for subsequent imaging studies. The biodistribution was measured by PET-CT out to 9 days in two different tumour xenografts and then validated by ex vivo gamma scintillation of excised organs at day 9.
Dendrimers were labelled and purified, validated by radioTLC prior to injection into the animals. Imaging was conducted in a cohort of n=4 mice for each cell line and each dendrimer. Standard health of the mice was monitored by score sheet and mouse weight over the complete timeframe of the study.
Healthy male Balb/C nude mice (˜20 g) from 8 weeks old were obtained from the ARC and used for this study. Mice were imported into the animal holding facility and monitored for 1 week prior to the study in order to acclimatise to the environment prior to injection of cells. […]
Mice (n=4 per group) bearing DU-145 or PC3 xenografts were injected with Zr-89 labelled dendrimers (compounds 1b and 3) via tail-vein. […] At 216 hrs post-injection, the organs were removed and signal intensity quantified by ex vivo gamma analysis. Faecal pellets were also measured for activity at this timepoint. […]

[3] = system: DU-145 subcutaneous tumours; experiment: Therapeutic study with radionuclide-containing dendrimers, DU-145 subcutaneous tumours; type: in vivo, Balb/C nude mice; settings: FIG. 20
From the text: Healthy male Balb/C nude mice (˜20 g) from 8 weeks old were obtained from the ARC and used for this study. Mice were imported into the animal holding facility and monitored for 1 week prior to the study in order to acclimatise to the environment prior to injection of cells. All animals were provided with free access to food and water before and during the imaging experiments which were approved by the Animal Ethics Committee.
The following compounds were used in the study: • Example 4b • Example 5 • Jevtana® (cabazitaxel) • Comparative example A: a non-radionuclide-containing dendrimer, which is BHALys[Lys]32[α-DGA-Cabazitaxel]32†[ε-PEG˜2100]32‡. […] The actual mean number of PEG˜2100 groups attached to the BHALys[Lys]32 was determined experimentally by ^1H NMR. […]
78 mice were injected with 4×10^6 DU-145 cells in Matrigel into the right flank to induce subcutaneous tumours. Tumour volume and body mass was monitored twice per week before mice with evident tumour growth (approximately […] in volume, tumour volume=½ (length×width^2)) were randomly assigned to groups and injected with compounds according to the schedule outlined in the table below, at day 0, 7 and 14. Following injections, the mice were monitored three times per week for tumour volume and body mass. […]

## BHALys[Lys]32[(α-TDA-DTX)30(α-DFO)2(ε-PEG2000)32] [Compound 1b]
[1]; Brain (minus tumour)
  % ID/g at 40 hrs: 2.0 % ID/g
  % ID/g at 5 days: 1.5 % ID/g
[1]; Tumour
  % ID/g at 40 hrs: 4.3 % ID/g
  % ID/g at 5 days: 4.0 % ID/g
[1]; Vascalature
  % ID/g at 40 hrs: 2.3 % ID/g
  % ID/g at 5 days: 2.0 % ID/g
[2]
  adverse health effects: no adverse health effects

## BHALys[Lys]32[(α-DGA-CTX)27(α-DOTA)2(ε-PEG2000)32] [Compound 4b]
[3]; group 4: higher dose, 4b 8 mg/kg (6 MBq) day 0, then Comparative Example A 8 mg/kg days 7 and 14
  suppression of tumour growth, ranking among groups: most effective
[3]; groups 4 and 7: Lu-177 labelled 4b 8 or 5 mg/kg (6 MBq) day 0, then Comparative Example A days 7 and 14
  suppression of tumour growth: effective in suppressing tumour growth

## BHALys[Lys]32[(α-DGA-CTX)31(α-DFO)1(ε-PEG2000)32] [Compound 3]
[2]
  adverse health effects: no adverse health effects
